Test results taken from PMC7015811.

How the values were obtained:
[1] = biological target: chCALHM1 hCALHM2 chimera (chicken | human) (UniProt Q9HA72); test: cryo-EM structure
chicken CALHM1 (chicken) = test: cryo-EM structure

Row | Substance | stoichiometry N [1] | stoichiometry N (chicken CALHM1 (chicken))
1 | chCALHM1 hCALHM2 chimera (from UniProt Q9HA72 205-323) | 11 | 
2 | chicken CALHM1 (natural protein) |  | 8
